The values that follow come from PMC8654365.

For assay [1], the target named is HA-tagged RON (Recepteur d'Origine Nantais, MST1R) stably expressed in A431 cells (human). The assay can be described thus: two-colour single quantum dot tracking with two-state hidden Markov model; live A431^RON cells, no ligand; HA-RON labelled with a mixture of anti-HA-QD605 and anti-HA-QD655 (monovalent Fab); 34–36 °C, 20 frames per s; off-rate of RON/RON homo-interactions.

For assay [2] the target is unchanged. In words: two-colour single quantum dot tracking with two-state hidden Markov model; live A431^RON cells; 200 pM anti-HA-QD655 on HA-RON, then 50 pM QD605-conjugated EGF-biotin on endogenous EGFR; 34–36 °C, 20 frames per s; off-rate of hetero-interactions.

HA-tagged RON (Recepteur d'Origine Nantais, MST1R) stably expressed in A431 cells (human), sequence (Q04912 25-304 limits assumed, chain 1 of 2): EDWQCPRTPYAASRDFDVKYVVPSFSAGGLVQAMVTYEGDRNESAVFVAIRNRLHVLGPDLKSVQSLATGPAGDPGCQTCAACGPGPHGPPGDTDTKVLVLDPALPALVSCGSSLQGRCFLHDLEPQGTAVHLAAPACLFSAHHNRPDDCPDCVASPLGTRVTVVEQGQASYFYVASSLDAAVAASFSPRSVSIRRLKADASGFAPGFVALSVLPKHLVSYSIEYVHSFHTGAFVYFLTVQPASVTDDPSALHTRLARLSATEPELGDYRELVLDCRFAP
HA-tagged RON (Recepteur d'Origine Nantais, MST1R) stably expressed in A431 cells (human), sequence (Q04912 310-1400 limits assumed, chain 2 of 2): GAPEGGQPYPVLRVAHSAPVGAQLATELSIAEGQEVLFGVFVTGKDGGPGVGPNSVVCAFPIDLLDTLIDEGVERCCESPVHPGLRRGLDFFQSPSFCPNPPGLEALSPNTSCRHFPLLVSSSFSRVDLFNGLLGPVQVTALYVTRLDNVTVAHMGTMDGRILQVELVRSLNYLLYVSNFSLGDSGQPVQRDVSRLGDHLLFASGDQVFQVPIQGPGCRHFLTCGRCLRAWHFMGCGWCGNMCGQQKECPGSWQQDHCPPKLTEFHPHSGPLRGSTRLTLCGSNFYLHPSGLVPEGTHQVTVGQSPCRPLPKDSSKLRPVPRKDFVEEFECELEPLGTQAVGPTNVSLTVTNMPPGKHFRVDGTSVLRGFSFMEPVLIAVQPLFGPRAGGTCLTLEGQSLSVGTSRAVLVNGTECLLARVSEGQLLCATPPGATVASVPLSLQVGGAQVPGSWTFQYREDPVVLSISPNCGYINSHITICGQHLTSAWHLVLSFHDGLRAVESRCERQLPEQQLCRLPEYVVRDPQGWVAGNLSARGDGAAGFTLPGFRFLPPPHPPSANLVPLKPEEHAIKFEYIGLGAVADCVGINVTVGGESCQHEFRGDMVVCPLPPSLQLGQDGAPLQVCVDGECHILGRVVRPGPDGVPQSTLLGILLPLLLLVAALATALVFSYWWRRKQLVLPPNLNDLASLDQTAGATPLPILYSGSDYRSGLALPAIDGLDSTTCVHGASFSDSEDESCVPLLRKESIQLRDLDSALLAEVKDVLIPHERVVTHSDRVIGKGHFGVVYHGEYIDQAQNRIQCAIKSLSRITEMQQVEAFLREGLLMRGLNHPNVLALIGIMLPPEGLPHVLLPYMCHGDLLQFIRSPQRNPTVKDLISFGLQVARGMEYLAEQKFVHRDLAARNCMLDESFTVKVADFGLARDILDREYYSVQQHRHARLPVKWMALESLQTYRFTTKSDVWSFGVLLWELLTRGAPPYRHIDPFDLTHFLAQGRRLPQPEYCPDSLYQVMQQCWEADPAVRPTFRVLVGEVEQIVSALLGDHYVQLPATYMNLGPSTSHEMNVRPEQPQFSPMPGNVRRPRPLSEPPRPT

As for “HA-tagged RON (Recepteur d'Origine Nantais, MST1R) stably expressed in A431 cells (receptor)”, in assay [1], the average lifetime worked out at 5.5 s and the koff worked out at 0.18 s⁻¹.
“EGF-bound EGFR (QD-conjugated EGF-biotin on endogenous EGFR of live A431^RON cells) (from UniProt P00533 25-1210) (complex)”: in assay [2], the average lifetime was determined as 2 s and the koff was found to be 0.49 s⁻¹.

As a reminder, the koff is the first-order rate constant of dissociation.
